Laboratory results: the Human Domainome abundance scans (Beltran et al. 2025)
± gives the uncertainty stated by the source.

B1: Histone-lysine N-methyltransferase 2A, residues 1148 to 1194; numbered along this chain, Q03164 (parent)
chain: KGRRSRRCGQCPGCQVPEDCGVCTNCLDKPKFGGRNIKKQCCKMRKC

Variants of: B1
Assay: abundance fitness (aPCA) (normalised: wild type 0, dead -1); higher = more abundant; growth selection in yeast, the domain comes from the species named
Conditions: Homo sapiens

KGRRSRRCGQCPGCQVPEDCGVCTNCLDKPKFGGRNIKKQCCKMRKD [C47D] and KGRRSRRCGQCPGCQVPEDCGVCTNCLDKPKFGGRNIKKQCCKMRKA [C47A] are within error of each other in abundance fitness: -0.347 ± 0.43 for the first, -0.695 ± 0.42 for the second.

KGRRSRRCGQCPGCQVPEDCGVCTNCLDKPKFGGRNIKKQICKMRKC [C41I] and KGRRSRRCGQCPGCQVPEDCGVCTNCLDKPKFGGRNIKKQPCKMRKC [C41P] are within error of each other in abundance fitness: 0.048 ± 0.16 for the first, 0.028 ± 0.11 for the second.

Going from KGRRSRRCGQCPGCQVPEDCGVCTNCLDKPKFGGRNIKKQWCKMRKC [C41W] to KGRRSRRCGQCPGCQVPEDCGVCTNCLDKPKFGGRNIKKQMCKMRKC [C41M], the abundance fitness rises from -0.095 ± 0.1 to 0.127 ± 0.098.

KGRRSRRCGQCPGCQVPEDCGVCTNCLDKPKFGGRNIKKQKCKMRKC [C41K] and KGRRSRRCGQCPGCQVPEDCGVCTNCLDKPKFGGRNIKKQYCKMRKC [C41Y] are within error of each other in abundance fitness: -0.123 ± 0.12 for the first, -0.322 ± 0.13 for the second.

KGRRSRRCGQCPGCQVPEDCGVCTNCLDKPKFGGRNIKKQNCKMRKC [C41N] and KGRRSRRCGQCPGCQVPEDCGVCTNCLDKPKFGGRNIKKQQCKMRKC [C41Q] are within error of each other in abundance fitness: 0.27 ± 0.17 for the first, 0.119 ± 0.11 for the second.

Compared with KGRRSRRCGQCPGCQVPEDCGVCTNCLDKPKFGGRNIKKQDCKMRKC [C41D], KGRRSRRCGQCPGCQVPEDCGVCTNCLDKPKFGGRNIKKQLCKMRKC [C41L] is lower in abundance fitness: 0.3 ± 0.16 for the first, -0.241 ± 0.09 for the second.

KGRRSRRCGQCPGCQVPEDCGVCTNCLDKPKFGGRNIKKQRCKMRKC [C41R] and KGRRSRRCGQCPGCQVPEDCGVCTNCLDKPKFGGRNIKKQGCKMRKC [C41G] are within error of each other in abundance fitness: -0.014 ± 0.083 for the first, 0.04 ± 0.082 for the second.

KGRRSRRCGQCPGCQVPEDCGVCTNCLDKPKFGGRNIKKQVCKMRKC [C41V] and KGRRSRRCGQCPGCQVPEDCGVCTNCLDKPKFGGRNIKKQFCKMRKC [C41F] are within error of each other in abundance fitness: 0.094 ± 0.089 for the first, -0.095 ± 0.12 for the second.

Going from KGRRSRRCGQCPGCQVPEDCGVCTNCLDKPKFGGRNIKKQHCKMRKC [C41H] to KGRRSRRCGQCPGCQVPEDCGVCTNCLDKPKFGGRNIKKQTCKMRKC [C41T], the abundance fitness falls from 0.098 ± 0.13 to -0.195 ± 0.12.

KGRRSRRCGQCPGCQVPEDCGVCTNCLDKPKFGGRNIKKQSCKMRKC [C41S] and KGRRSRRCGQCPGCQVPEDCGVCTNCLDKPKFGGRNIKKQACKMRKC [C41A] are within error of each other in abundance fitness: -0.066 ± 0.09 for the first, -0.104 ± 0.095 for the second.

First: KGRRSRRCGQCPGCQVPEDCGVCTNCLDKPKFGGRNIKKQCCKMSKC [R45S]
Second: KGRRSRRCGQCPGCQVPEDCGVCTNCLDKPKFGGRNIKKQCCKMEKC [R45E]
The abundance fitness of the first is higher: -0.349 ± 0.092 for the first, -0.682 ± 0.23 for the second.

KGRRSRRCGQCPGCQVPEDCGVCTNCLDKPKFGGRNIKKQCCKMKKC [R45K] and KGRRSRRCGQCPGCQVPEDCGVCTNCLDKPKFGGRNIKKQCCKMVKC [R45V] are within error of each other in abundance fitness: -0.529 ± 0.23 for the first, -0.492 ± 0.11 for the second.

KGRRSRRCGQCPGCQVPEDCGVCTNCLDKPKFGGRNIKKQCCKMHKC [R45H] and KGRRSRRCGQCPGCQVPEDCGVCTNCLDKPKFGGRNIKKQCCKMWKC [R45W] are within error of each other in abundance fitness: -0.737 ± 0.21 for the first, -0.662 ± 0.11 for the second.

KGRRSRRCGQCPGCQVPEDCGVCTNCLDKPKFGGRNIKKQCCKMQKC [R45Q] and KGRRSRRCGQCPGCQVPEDCGVCTNCLDKPKFGGRNIKKQCCKMYKC [R45Y] are within error of each other in abundance fitness: -0.52 ± 0.13 for the first, -0.735 ± 0.18 for the second.

Compared with KGRRSRRCGQCPGCQVPEDCGVCTNCLDKPKFGGRNIKKQCCKMLKC [R45L], KGRRSRRCGQCPGCQVPEDCGVCTNCLDKPKFGGRNIKKQCCKMMKC [R45M] is higher in abundance fitness: -0.527 ± 0.093 for the first, -0.308 ± 0.12 for the second.

KGRRSRRCGQCPGCQVPEDCGVCTNCLDKPKFGGRNIKKQCCKMPKC [R45P] and KGRRSRRCGQCPGCQVPEDCGVCTNCLDKPKFGGRNIKKQCCKMIKC [R45I] are within error of each other in abundance fitness: -0.67 ± 0.14 for the first, -0.439 ± 0.17 for the second.

KGRRSRRCGQCPGCQVPEDCGVCTNCLDKPKFGGRNIKKQCCKMTKC [R45T] and KGRRSRRCGQCPGCQVPEDCGVCTNCLDKPKFGGRNIKKQCCKMAKC [R45A] are within error of each other in abundance fitness: -0.597 ± 0.12 for the first, -0.659 ± 0.11 for the second.

KGRRSRRCGQCPGCQVPEDCGVCTNCLDKPKFGGRNIKKQCCKMDKC [R45D] and KGRRSRRCGQCPGCQVPEDCGVCTNCLDKPKFGGRNIKKQCCKMGKC [R45G] are within error of each other in abundance fitness: -0.411 ± 0.17 for the first, -0.429 ± 0.093 for the second.

KGRRSRRCGQCPGCQVPEDCGVCTNCLDKPKFGGRNIKKQCGKMRKC [C42G] and KGRRSRRCGQCPGCQVPEDCGVCTNCLDKPKFGGRNIKKQCWKMRKC [C42W] are within error of each other in abundance fitness: -0.909 ± 0.098 for the first, -0.821 ± 0.15 for the second.

KGRRSRRCGQCPGCQVPEDCGVCTNCLDKPKFGGRNIKKQCYKMRKC [C42Y] and KGRRSRRCGQCPGCQVPEDCGVCTNCLDKPKFGGRNIKKQCIKMRKC [C42I] are within error of each other in abundance fitness: -0.792 ± 0.12 for the first, -1 ± 0.18 for the second.

Compared with KGRRSRRCGQCPGCQVPEDCGVCTNCLDKPKFGGRNIKKQCNKMRKC [C42N], KGRRSRRCGQCPGCQVPEDCGVCTNCLDKPKFGGRNIKKQCLKMRKC [C42L] is higher in abundance fitness: -1 ± 0.18 for the first, -0.651 ± 0.097 for the second.

KGRRSRRCGQCPGCQVPEDCGVCTNCLDKPKFGGRNIKKQCEKMRKC [C42E] and KGRRSRRCGQCPGCQVPEDCGVCTNCLDKPKFGGRNIKKQCVKMRKC [C42V] are within error of each other in abundance fitness: -0.604 ± 0.15 for the first, -0.813 ± 0.11 for the second.

KGRRSRRCGQCPGCQVPEDCGVCTNCLDKPKFGGRNIKKQCRKMRKC [C42R] and KGRRSRRCGQCPGCQVPEDCGVCTNCLDKPKFGGRNIKKQCFKMRKC [C42F] are within error of each other in abundance fitness: -0.569 ± 0.091 for the first, -0.647 ± 0.11 for the second.

KGRRSRRCGQCPGCQVPEDCGVCTNCLDKPKFGGRNIKKQCTKMRKC [C42T] and KGRRSRRCGQCPGCQVPEDCGVCTNCLDKPKFGGRNIKKQCMKMRKC [C42M] are within error of each other in abundance fitness: -0.824 ± 0.14 for the first, -1.01 ± 0.2 for the second.

KGRRSRRCGQCPGCQVPEDCGVCTNCLDKPKFGGRNIKKQCDKMRKC [C42D] and KGRRSRRCGQCPGCQVPEDCGVCTNCLDKPKFGGRNIKKQCPKMRKC [C42P] are within error of each other in abundance fitness: -0.849 ± 0.21 for the first, -0.709 ± 0.14 for the second.

KGRRSRRCGQCPGCQVPEDCGVCTNCLDKPKFGGRNIKKQCHKMRKC [C42H] and KGRRSRRCGQCPGCQVPEDCGVCTNCLDKPKFGGRNIKKQCAKMRKC [C42A] are within error of each other in abundance fitness: -0.809 ± 0.18 for the first, -0.952 ± 0.14 for the second.

First: KGRRSRRCGQCPGCQVPEDCGVCTNCLDKPKFGGRNIKKQCQKMRKC [C42Q]
Second: KGRRSRRCGQCPGCQVPEDCGVCTNCLDKPKFGGRNIKKQCCKMRPC [K46P]
The abundance fitness of the first is lower: -0.955 ± 0.19 for the first, -0.341 ± 0.15 for the second.

In the case of KGRRSRRCGQCPGCQVPEDCGVCTNCLDKPKFGGRNIKKQCCKMRCC [K46C], the abundance fitness is reported as -0.17 ± 0.22.
